From the supplement of paper PMC9112550, “Optimization of the antimicrobial peptide Bac7 by deep mutational scanning” (BMC Biology, 2022)

tested on: Escherichia coli TOP10; experiment: shrunken log2 fold change of peptide-encoding DNA abundance (4.5 h post-induction vs induction); higher = less antimicrobial activity (less host growth inhibition); details: time post-induction: 4.5 h; library: site-saturation at positions 5, 18, 19, 20
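Further: peptides expressed intracellularly from a pBAD plasmid library in pooled LB shake-flask culture, induced with 0.3% L-arabinose, DNA abundance read by NGS, three biological replicates, DESeq2 with apeglm shrinkage.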

Sequence | shrunken log2 fold change
RRIRSRPPRLPRPRPRPAWYPRP | -0.3
RRIRSRPPRLPRPRPRPYYEPRP | -0.628
RRIRERPPRLPRPRPRPISVPRP | -0.137
RRIRVRPPRLPRPRPRPEAAPRP | 0.635
RRIRKRPPRLPRPRPRPCPSPRP | -0.0812
RRIRKRPPRLPRPRPRPTVQPRP | 0.777
RRIRIRPPRLPRPRPRPSTLPRP | -0.726
RRIRARPPRLPRPRPRPMWRPRP | 0.248
RRIRRRPPRLPRPRPRPQIMPRP | -0.137
RRIRHRPPRLPRPRPRPDTAPRP | 0.0194
RRIRTRPPRLPRPRPRPACDPRP | 0.139
RRIRYRPPRLPRPRPRPSKIPRP | -0.502
RRIRYRPPRLPRPRPRPWAPPRP | -0.289
RRIRRRPPRLPRPRPRPLWMPRP | 0.0635
RRIRYRPPRLPRPRPRPDHNPRP | -0.217
RRIRMRPPRLPRPRPRPWMYPRP | -0.0417
RRIRCRPPRLPRPRPRPHTDPRP | -0.246
RRIRQRPPRLPRPRPRPHCKPRP | -0.187
RRIRARPPRLPRPRPRPYTDPRP | -0.785
RRIRKRPPRLPRPRPRPFPWPRP | 0.582

Sequence | shrunken log2 fold change
RRIRARPPRLPRPRPRPSPIPRP | -0.0445
RRIRERPPRLPRPRPRPYLTPRP | -0.424
RRIRARPPRLPRPRPRPWNSPRP | -0.222
RRIRPRPPRLPRPRPRPSSFPRP | -0.345
RRIRYRPPRLPRPRPRPNEEPRP | -0.0952
RRIRIRPPRLPRPRPRPDELPRP | 0.0623
RRIRYRPPRLPRPRPRPPTMPRP | -0.352
RRIRQRPPRLPRPRPRPDDLPRP | 0.0248
RRIRIRPPRLPRPRPRPFIDPRP | -0.205
RRIRLRPPRLPRPRPRPRQQPRP | 0.319
RRIRHRPPRLPRPRPRPKEEPRP | -0.0523
RRIRGRPPRLPRPRPRPEPNPRP | 1.42
RRIRVRPPRLPRPRPRPNPAPRP | 0.31
RRIRNRPPRLPRPRPRPRYDPRP | -0.494
RRIRWRPPRLPRPRPRPCFEPRP | -0.0254
RRIRIRPPRLPRPRPRPHDCPRP | -0.123
RRIRSRPPRLPRPRPRPEKCPRP | -0.0875
RRIRHRPPRLPRPRPRPHLMPRP | -0.177
RRIRFRPPRLPRPRPRPLCYPRP | -0.557
